Assay results reported in paper PMC11142708.

These substances were tested against microtubule (assay: optical trap binding-time assay; kinesin held by its C-terminal His tag on a polystyrene bead (0.56 um, streptavidin with biotinylated penta-His antibody), at most one motor per bead, trapped 0, 20, 40 or 60 nm from a surface-attached microtubule; binding time = time from unbinding to the next detectable bead displacement (>15 nm); room temperature; motility buffer (80 mM Pipes pH 6.9, 50 mM CH3COOK, 4 mM MgSO4, 1 mM DTT, 1 mM EGTA, 10 uM taxol, 1 mg/mL casein) with 2 mM ATP and an oxygen-scavenging system; the rates of Table 1 are fits of Brownian dynamics models to the mean binding times of all three motor lengths together).

binding time (plateau at close distances) [s] | koff^ADP,fast (rate of the weak-to-strong binding transition on the microtubule; diffusion with ADP state model) [s⁻¹] | koff^MT (unbinding from the weakly bound state, at zero force; diffusion with ADP state model) [s⁻¹] | kon^MT (microscopic first-order binding rate when the head is within 5 nm of the microtubule; diffusion with ADP state model) [s⁻¹] | kon^MT (microscopic first-order binding rate; simple diffusion model) [s⁻¹] | Substance
1 | 2.12 | 0.2 | 70.7 | 80.6 | DK-406-His (Drosophila Kinesin aa 1-406; His tag at c-term) (from UniProt P17210 1-406) (domain or fragment)
1 | 2.12 | 0.2 | 70.7 | 80.6 | DK-746-His (Drosophila Kinesin aa 1-746; His tag at c-term) (from UniProt P17210 1-746) (domain or fragment)
1 | 2.12 | 0.2 | 70.7 | 80.6 | DK-560-His (Kinesin-1, aa 1-560; His tag at c-term) (from UniProt P17210 1-560) (domain or fragment)
